The record followed here is US20160083449A1 (FRED HUTCHINSON CANCER RESEARCH CENTER, published 2016).

The target of test [1] is T1, Wilms tumor protein 1 (WT-1) peptide on HLA-A*02:01 (human).
T1 peptide: RMFPNAPYL
Nature of the test: Kd or kinetics.

Test [2] addresses T2, WT-1^126-134 peptide/MHC tetramer (…, SEQ ID NO.:16, with HLA-A2), PE-conjugated (human).
T2 construct: Tetramer reagent used for staining of T cells; the source and the construct of the HLA-A2 monomers are not described; also called WT1 tetramers; WT-1 tetramer
Nature of the test: flow cytometry of transduced PBMCs; share of tetramer-positive cells within the transduced population (Vβ+ cells minus the endogenous Vβ+ cells of the untransduced control); drawn table.

B1: P1 TCR (TCRP1) (TCR, V domains shown)
Valpha: AQKVTQAQTEISVVEKEDVTLDCVYETRDTTYYLFWYKQPPSGELVFLIRRNSFDEQNEISGRYSWNFQKSTSSFNFTITASQVVDSAVYFCALSEAHRDSNYQLIWGAGTKLIIKP
Vbeta: ETGVTQTPRHLVMGMTNKKSLKCEQHLGHNAMYWYKQSAKKPLELMFVYNFKEQTENNSVPSRFSPECPNSSHLFLHLHTLQPEDSALYLCASSQDEQFLYNEQFFGPGTRLTVL
On to B1, for which the binding result in test [1] is on record as “recognises”.

B2: TCRP20, WT-1^126-134-specific TCR of T cell clone P20 (TCR, V domains shown)
V domain 1: QKEVEQNSGPLSVPEGAIASLNCTYSDRGSQSFFWYRQYSGKSPELIMSIYSNGDKEDGRFTAQLNKASQYVSLLIRDSQPSDSATYLCAVLEGQKLLFARGTMLKVDL
V domain 2: DVKVTQSSRYLVKRTGEKVFLECVQDMDHENMFWYRQDPGLGLRLIYFSYDVKMKEKGDIPEGYSVSREKKERFSLILESASTNQTSMYLCATSHQPQHFGDGTRLSILE
modifications: Engineered cysteine pair (alpha T179C, beta S185C, precursor numbering) gives an extra interchain disulfide.
notes: On the T cell clone
B2: in test [2], the “% transduced Vβ+ tet+” value turned out to be 51.2%.

B3: P20 TCR (TCRP20) (TCR, V domains shown)
Valpha: B2 V domain 1
Vbeta: DVKVTQSSRYLVKRTGEKVFLECVQDMDHENMFWYRQDPGLGLRLIYFSYDVKMKEKGDIPEGYSVSREKKERFSLILESASTNQTSMYLCATSHQPQHFGDGTRLSIL
Take B3: the binding result in test [1] was “recognises”.
